Results from article PMC3445539.

Tests used:
mCherry-CENP-P [1] = target: mCherry-CENP-P (UniProt Q6IPU0); test: FRET or BRET; FLIM: donor fluorescence lifetime by time-correlated single photon counting at kinetochores of living HEp-2 cells, EGFP donor and mCherry acceptor
mCherry-CENP-P [2] = target: mCherry-CENP-P (UniProt Q6IPU0); test: fluorescence cross-correlation spectroscopy (FCCS); nucleoplasm free of kinetochores in living double-transfected U2OS cells, EGFP and mCherry fusions, 37°C
mCherry-CENP-O (human) = mCherry-CENP-O (human) (UniProt Q9BU64); test: FRET or BRET; FLIM: donor fluorescence lifetime by time-correlated single photon counting at kinetochores of living HEp-2 cells, EGFP donor and mCherry acceptor
Chain of UniProt Q9BU64 (Q9BU64 whole entry): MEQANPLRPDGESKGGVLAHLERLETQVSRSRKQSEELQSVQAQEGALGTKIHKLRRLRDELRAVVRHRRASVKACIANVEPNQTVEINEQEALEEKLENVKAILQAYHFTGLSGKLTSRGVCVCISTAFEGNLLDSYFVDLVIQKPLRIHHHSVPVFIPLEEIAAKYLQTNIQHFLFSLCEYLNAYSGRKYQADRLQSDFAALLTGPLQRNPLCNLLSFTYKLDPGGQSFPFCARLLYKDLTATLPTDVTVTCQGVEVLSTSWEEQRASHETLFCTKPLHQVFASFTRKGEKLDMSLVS

Which donor fluorescence lifetime in the presence of the acceptor (mCherry-CENP-P [1]) does the source give for “CENP-Q-EGFP (from UniProt Q7L2Z9 1-268) (natural protein)” here?
The donor fluorescence lifetime in the presence of the acceptor was 2.08 nsec.

“EGFP-CENP-O (from UniProt Q9BU64 1-300) (natural protein)” was tested. Which percent hetero-dimers, A(CC)/A(AC) (mCherry-CENP-P [2]) did it give?
The percent hetero-dimers, A(CC)/A(AC) was 20 to 30%.

And the percent of the molecules co-migrating (cross-correlation amplitude over mCherry amplitude) (mCherry-CENP-P [2])?
The percent of the molecules co-migrating (cross-correlation amplitude over mCherry amplitude) was 29%.

With “CENP-P-EGFP (from UniProt Q6IPU0 1-288) (natural protein)” as the substance, how does the donor fluorescence lifetime in the presence of the acceptor (mCherry-CENP-O (human)) read?
The donor fluorescence lifetime in the presence of the acceptor was 2.16 nsec.

For EGFP-CENP-O, which “percent hetero-dimers, the authors' corrected estimate” value (mCherry-CENP-P [2]; other: fluorescence cross-correlation spectroscopy (FCCS)) is on record?
The value was “we estimate 40–60%”.
